Measured values as given in US20250188434A1 (VERRA THERAPEUTICS, published 2025).

T1: ADAM9 (human or mouse ADAM9, enzyme of the in vitro inhibition assay) (human or mouse, UniProt Q13443 206-697, limits assumed)
T1 sequence (looked up): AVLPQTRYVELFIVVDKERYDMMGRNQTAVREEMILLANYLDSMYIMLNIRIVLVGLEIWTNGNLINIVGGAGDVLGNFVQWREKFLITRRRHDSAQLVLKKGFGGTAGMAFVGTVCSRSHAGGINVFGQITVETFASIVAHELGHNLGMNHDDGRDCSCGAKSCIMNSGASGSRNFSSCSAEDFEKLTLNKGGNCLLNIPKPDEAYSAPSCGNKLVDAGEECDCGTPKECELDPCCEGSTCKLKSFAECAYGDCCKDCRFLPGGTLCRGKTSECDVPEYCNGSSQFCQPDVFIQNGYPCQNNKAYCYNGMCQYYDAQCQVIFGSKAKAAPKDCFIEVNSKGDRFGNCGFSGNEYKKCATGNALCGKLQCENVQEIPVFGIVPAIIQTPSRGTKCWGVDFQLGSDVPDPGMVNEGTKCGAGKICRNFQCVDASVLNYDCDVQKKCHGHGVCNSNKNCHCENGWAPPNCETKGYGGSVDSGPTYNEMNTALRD

T2: Human Meprin beta (human, UniProt Q16820 62-652, limits assumed)
T2 sequence (looked up): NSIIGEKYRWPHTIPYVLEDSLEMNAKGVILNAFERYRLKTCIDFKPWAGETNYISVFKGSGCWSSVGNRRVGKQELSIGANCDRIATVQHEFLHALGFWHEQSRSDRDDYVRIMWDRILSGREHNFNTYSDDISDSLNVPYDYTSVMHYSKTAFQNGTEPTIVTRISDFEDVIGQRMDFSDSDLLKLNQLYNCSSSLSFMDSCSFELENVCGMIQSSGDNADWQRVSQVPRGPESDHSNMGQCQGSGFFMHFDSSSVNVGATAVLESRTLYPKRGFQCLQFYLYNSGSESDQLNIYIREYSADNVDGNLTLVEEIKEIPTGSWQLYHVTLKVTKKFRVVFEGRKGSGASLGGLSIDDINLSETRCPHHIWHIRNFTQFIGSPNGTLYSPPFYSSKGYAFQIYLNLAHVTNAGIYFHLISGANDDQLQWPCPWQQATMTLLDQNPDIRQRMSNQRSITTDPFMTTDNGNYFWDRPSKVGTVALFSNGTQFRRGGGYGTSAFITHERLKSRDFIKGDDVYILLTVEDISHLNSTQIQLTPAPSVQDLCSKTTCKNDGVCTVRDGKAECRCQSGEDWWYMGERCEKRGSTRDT


The binders below were run against T1, ADAM9 (human or mouse ADAM9, enzyme of …) (assay: cell-based or functional assay).

Binder	IC50, inhibition of ADAM9 activity; wild type prodomain assayed 1 week after dialysis, when dimer formation had occurred [nM]
wild type human ADAM9 prodomain peptide (SEQ ID NO: 2) (peptide) ARPGFQQTSHLSSYEIITPWRLTRERREAPRPYSKQVSYVIQAEGKEHIIHLERNKDLLPEDFVVYTYNKEGTLITDHPNIQNHCHYRGYVEGVHNSSIALSDCFGLRGLLHLENASYGIEPLQNSSHFEHIIYRMDDVYKEPLKCGVSNKDIEKETAKDEEEEPPSMTQLLRR	120

Target: T1, ADAM9 (human or mouse ADAM9, enzyme of …)
Assay: cell-based or functional assay
Remark: another data set of the same source

Binder	IC50, inhibition of ADAM9 activity on FRET substrate PEPDAB064; prodomain from inclusion bodies [nM]	IC50, inhibition of ADAM9 activity on FRET substrate PEPDAB064; prodomain from soluble fraction [nM]	IC50, inhibition of ADAM9 activity on FRET substrate PEPDAB064; prodomain refolded from inclusion bodies (aggregating) [nM]
wild type human ADAM9 prodomain peptide (SEQ ID NO: 2) (peptide) ARPGFQQTSHLSSYEIITPWRLTRERREAPRPYSKQVSYVIQAEGKEHIIHLERNKDLLPEDFVVYTYNKEGTLITDHPNIQNHCHYRGYVEGVHNSSIALSDCFGLRGLLHLENASYGIEPLQNSSHFEHIIYRMDDVYKEPLKCGVSNKDIEKETAKDEEEEPPSMTQLLRR	20		
modified ADAM9 prodomain peptide SEQ ID NO: 14 (peptide) ARPGFQQTSHLSSYEIITPWRLTREAREAPRPYSKQVSYVIQAEGKEHIIHLERNKDLLPEAFVVYTYNKEGTLITDHPNIQNHSHYRGYVEGVHNSSIALSDSFGLRGLLHLENASYGIEPLQNSSHFEHIIYRMDDVYKEPLKSGVSNKDIEKETAKDEEEEPPSMTQLLRR	136		
modified ADAM9 prodomain peptide SEQ ID NO: 16 (peptide) ARPGFQQTSHLSSYEIITPWRLTRERSEAPRPYSKQVSYVIQAEGKEHIIHLERNKDLLPEDFVVYTYNKEGTLITDHPNIQNHSHYRGYVEGVHNSSIALSDSFGLRGLLHLENASYGIEPLQNSSHFEHIIYRMDDVYKEPLKSGVSNKDIEKETAKDEEEEPPSMTQLLRR	29		
modified ADAM9 prodomain peptide SEQ ID NO: 17 (peptide) QTSHLSSYEIITPWRLTRERAEAPRPYSKQVSYVIQAEGKEHIIHLERNKDLLPEDFVVYTYNKEGTLITDHPNIQNHSHYRGYVEGVHNSSIALSDSFGLRGLLHLENASYGIEPLQNSSHFEHIIYRMDDVYKEPLKSGVSNKDIEKETAKDEEEEPPSMTQLLRR	185		
modified ADAM9 prodomain peptide SEQ ID NO: 18 (peptide) ARPGFQQTSHLSSYEIITPWRLTRERAEAPRPYSKQVSYVIQAEGKEHIIHLERNKDLLPEDFVVYTYNKEGTLITDHPNIQNHSHYRGYVEGVHNSSIALSDSFGLRGLLHLENASYGIEPLQNSSHFEHIIYRMDSVYKEPLKSGVSNKDIEKETAKDEEEEPPSMTQLLRR	181		
modified ADAM9 prodomain peptide SEQ ID NO: 19 (peptide) ARPGFQQTSHLSSYEIITPWRLTRERAEAPRPYSKQVSYVIQAEGKEHIIHLERNKDLLPEDFVVYTYNKEGTLITDHPNIQNHSHYRGYVEGVHNSSIALSDSFGLRGLLHLENASYGIEPLQNSSHFEHIIYRMDDVYKEPLKSGVSNKDIEKETAKDNENEPPSMTQLLRR	33		
Chemically modified SEQ ID NO: 2 (wild type ADAM9 prodomain labelled with ALEXA FLUOR 647 maleimide ester) (ALEXA FLUOR 647 brand maleimide ester on its three cysteines (85, 104 and 146 of SEQ ID NO: 2)) ARPGFQQTSHLSSYEIITPWRLTRERREAPRPYSKQVSYVIQAEGKEHIIHLERNKDLLPEDFVVYTYNKEGTLITDHPNIQNHCHYRGYVEGVHNSSIALSDCFGLRGLLHLENASYGIEPLQNSSHFEHIIYRMDDVYKEPLKCGVSNKDIEKETAKDEEEEPPSMTQLLRR	125		
pegylated SEQ ID NO: 20 (20 kDa maleimide PEG on the cysteine of the pentapeptide added to the C-terminus) ARPGFQQTSHLSSYEIITPWRLTREAREAPRPYSKQVSYVIQAEGKEHIIHLERNKDLLPEDFVVYTYNKEGTLITDHPNIQNHSHYRGYVEGVHNSSIALSDSFGLRGLLHLENASYGIEPLQNSSHFEHIIYRMDDVYKEPLKSGVSNKDIEKETAKDEEEEPPSMTQLLRRGSGSC	16		
pegylated SEQ ID NO: 21 (pegylated at cysteine 146 (PEG size not stated for this construct)) ARPGFQQTSHLSSYEIITPWRLTRERAEAPRPYSKQVSYVIQAEGKEHIIHLERNKDLLPEDFVVYTYNKEGTLITDHPNIQNHSHYRGYVEGVHNSSIALSDSFGLRGLLHLENASYGIEPLQNSSHFEHIIYRMDDVYKEPLKCGVSNKDIEKETAKDEEEEPPSMTQLLRR	40.5		
pegylated SEQ ID NO: 22 (pegylated at the N-terminus, on the cysteine of the added N-terminal pentapeptide (PEG size not stated for this construct)) GSCGSARPGFQQTSHLSSYEIITPWRLTRERAEAPRPYSKQVSYVIQAEGKEHIIHLERNKDLLPEDFVVYTYNKEGTLITDHPNIQNHSHYRGYVEGVHNSSIALSDSFGLRGLLHLENASYGIEPLQNSSHFEHIIYRMDDVYKEPLKSGVSNKDIEKETAKDEEEEPPSMTQLLRR	60		
pegylated SEQ ID NO: 23 (pegylated at the C-terminus, on the cysteine of the added C-terminal pentapeptide (PEG size not stated for this construct)) ARPGFQQTSHLSSYEIITPWRLTRERAEAPRPYSKQVSYVIQAEGKEHIIHLERNKDLLPEDFVVYTYNKEGTLITDHPNIQNHSHYRGYVEGVHNSSIALSDSFGLRGLLHLENASYGIEPLQNSSHFEHIIYRMDDVYKEPLKSGVSNKDIEKETAKDEEEEPPSMTQLLRRGSGSC	39.9		
modified ADAM9 prodomain peptide SEQ ID NO: 10 (peptide) ARPGFQQTSHLSSYEIITPWRLTREAREAPRPYSKQVSYVIQAEGKEHIIHLERNKDLLPEDFVVYTYNKEGTLITDHPNIQNHSHYRGYVEGVHNSSIALSDSFGLRGLLHLENASYGIEPLQNSSHFEHIIYRMDDVYKEPLKSGVSNKDIEKETAKDEEEEPPSMTQLLRR		49	> 200
modified ADAM9 prodomain peptide SEQ ID NO: 12 (peptide) ARPGFQQTSHLSSYEIITPWRLTRERAEAPRPYSKQVSYVIQAEGKEHIIHLERNKDLLPEDFVVYTYNKEGTLITDHPNIQNHSHYRGYVEGVHNSSIALSDSFGLRGLLHLENASYGIEPLQNSSHFEHIIYRMDDVYKEPLKSGVSNKDIEKETAKDEEEEPPSMTQLLRR	41	39	
modified ADAM9 prodomain peptide SEQ ID NO: 11 (peptide) ARPGFQQTSHLSSYEIITPWRLTAERREAPRPYSKQVSYVIQAEGKEHIIHLERNKDLLPEDFVVYTYNKEGTLITDHPNIQNHSHYRGYVEGVHNSSIALSDSFGLRGLLHLENASYGIEPLQNSSHFEHIIYRMDDVYKEPLKSGVSNKDIEKETAKDEEEEPPSMTQLLRR	> 200	13.8	
modified ADAM9 prodomain peptide SEQ ID NO: 13 (peptide) ARPGFQQTSHLSSYEIITPWRLTRERREAPRPYSKQVSYVIQAEGKEHIIHLERNKDLLPEDFVVYTYNKEGTLITDHPNIQNHSHYRGYVEGVHNSSIALSDSFGLRGLLHLENASYGIEPLQNSSHFEHIIYRMDDVYKEPLKSGVSNKDIEKETAKDEEEEPPSMTQLLRR	46		

What follows are binders tested against T2, Human Meprin beta (assay: cell-based or functional assay).

Binder	IC50, inhibition of activated Meprin beta on fluorescent substrate PEPDAB022 [nM]
wild type human ADAM9 prodomain peptide (SEQ ID NO: 2) (peptide) ARPGFQQTSHLSSYEIITPWRLTRERREAPRPYSKQVSYVIQAEGKEHIIHLERNKDLLPEDFVVYTYNKEGTLITDHPNIQNHCHYRGYVEGVHNSSIALSDCFGLRGLLHLENASYGIEPLQNSSHFEHIIYRMDDVYKEPLKCGVSNKDIEKETAKDEEEEPPSMTQLLRR	200
modified ADAM9 prodomain peptide SEQ ID NO: 12 (peptide) ARPGFQQTSHLSSYEIITPWRLTRERAEAPRPYSKQVSYVIQAEGKEHIIHLERNKDLLPEDFVVYTYNKEGTLITDHPNIQNHSHYRGYVEGVHNSSIALSDSFGLRGLLHLENASYGIEPLQNSSHFEHIIYRMDDVYKEPLKSGVSNKDIEKETAKDEEEEPPSMTQLLRR	7400
25-1 (SEQ ID NO: 21), as labelled in Table 5 (peptide) ARPGFQQTSHLSSYEIITPWRLTRERAEAPRPYSKQVSYVIQAEGKEHIIHLERNKDLLPEDFVVYTYNKEGTLITDHPNIQNHSHYRGYVEGVHNSSIALSDSFGLRGLLHLENASYGIEPLQNSSHFEHIIYRMDDVYKEPLKCGVSNKDIEKETAKDEEEEPPSMTQLLRR	2800
25-2 (SEQ ID NO: 22), as labelled in Table 5 (peptide) GSCGSARPGFQQTSHLSSYEIITPWRLTRERAEAPRPYSKQVSYVIQAEGKEHIIHLERNKDLLPEDFVVYTYNKEGTLITDHPNIQNHSHYRGYVEGVHNSSIALSDSFGLRGLLHLENASYGIEPLQNSSHFEHIIYRMDDVYKEPLKSGVSNKDIEKETAKDEEEEPPSMTQLLRR	3800
25-3 (SEQ ID NO: 23), as labelled in Table 5 (peptide) ARPGFQQTSHLSSYEIITPWRLTRERAEAPRPYSKQVSYVIQAEGKEHIIHLERNKDLLPEDFVVYTYNKEGTLITDHPNIQNHSHYRGYVEGVHNSSIALSDSFGLRGLLHLENASYGIEPLQNSSHFEHIIYRMDDVYKEPLKSGVSNKDIEKETAKDEEEEPPSMTQLLRRGSGSC	5700
